Experimental data: patent publication US20140056903A1 (Regeneron, published 2014)
Substitutions are numbered along the chain they refer to. Names and notes keep the numbering of the source.

B1: H4H2294S (antibody, human IgG4, V domains shown)
VH: EVQLVESGGGLVQPGGSLRLSCAASGFTFSSYAMSWVRQAPGKGLEWVSVISGSGGSTYYADAVKGRFTISRDNSKHTLYLQMNSLRAEDTAVYYCTKPSSYSSSNFYYGMDVWGQGSTVTVSS
VL: DIQLTQSPSSVSASVGDRVTITCRASQGISSWLAWYQQKPGKAPKLLIYAASSLQSGVPSRFSGSGSGTDFTLTISSLQPEDFATYYCQQTNSFPFPFGPGTKVDIK
notes: human IgG4 Fc (H4H)
B2: H4H2342P (antibody, human IgG4, V domains shown)
VH: EVQLLESGGGLVQPGGSLRLSCAASGFTFSTYAMSWVRQAPGKGLEWVSAIRGNGVNTYYGDSMKGRFTISRDNSKDTLYLQMNSLRAEDTAVYYCAKNKWELLVFEYWGQGTLVTVSS
VL: DIQMTQSPSSLSASVGDRVTITCRASQDISNYLAWYQQKPGKVPKLLIYAASTLQSGVPFRFSGSGSGTDFTLTISSLQPEDVATYYCQKYNSAPPFGPGTKVDIK
notes: human IgG4 Fc (H4H)
B3: H4H2355S (antibody, human IgG4, V domains shown)
VH: EVQLVESGGGLVQPGGSLRLSCAASGFTFSSYAMSWVRQVPGKGLEWVSAISGSGDNTYNAESVKGRFTISRDNSKNMLYLQMNSLRAEDTAVYYCAKTKFSSSLLFDYWGQGTLVTVSS
VL: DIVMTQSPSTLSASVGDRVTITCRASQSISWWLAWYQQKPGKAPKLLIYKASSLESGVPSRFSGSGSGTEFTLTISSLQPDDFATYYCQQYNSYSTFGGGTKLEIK
notes: human IgG4 Fc (H4H)
B4: H4H2357S (antibody, human IgG4, V domains shown)
VH: EVQLVESGGGLVQPGGSLRLSCAASTFTFSSYAMTWVRQAPGKGLEWVSSISGSGDSTYYADSVKGRFTISRDNSKNTLFLQMNSLRAEDTAVYYCAKKDGPGRYYVRYGMDVWGQGTTVTVSS
VL: B1 VL with L4M, A50T, A51T, T91A, F96L, P97T, P100G
notes: human IgG4 Fc (H4H)
B5: H4H2292S (antibody, human IgG4, V domains shown)
VH: EVQLVESGGGVVQPGRSLRLSCAASGFTFSSYGMHWVRQAPGKGLEWVSFIWYDGSNKYYADSVKGRFTISRDNSKNTLYLQMNSLTAEDTAVYYCARRGILTGTTAFDIWGQGTMVTVSS
VL: DIQMTQSPSSLSASVGDRVTITCRASQSISSYLNWYQQKPGKAPKLLIYAASSLQSGVPSRFSGSGSGTDFTLTIRSLIPEDFATYYCQQTYNTPFTFGPGTKVEIK
notes: human IgG4 Fc (H4H)
B6: H4H2352S (antibody, human IgG4, V domains shown)
VH: EVQLVQSGAEVKKPGASVKVSCKASGYTFTNYGITWVRQAPGQGLEWMGWISAYNGNTGYAQKFQGRVTMTTDTSTSTAYMELRSLRSDDTAVYYCAREDYDFWRAFDIWGQGTMVTVSS
VL: EIVLTQSPGTLSLSPGERATLSCRASQSVSSTYLAWLQQKPGQAPRLLIYGASSRATGIPDRFSGSGSGTDFTLTINRLEPEDFAVYYCQQYAYSPYTFGQGTKLEIK
notes: human IgG4 Fc (H4H); also called H4H2352S-1
B7: H4H2350P (antibody, human IgG4, V domains shown)
VH: QVQLQESGPGLVKPSETLSLTCTVSGGSISTYYWSWFRQPPGKGLEWIGYIYYSGSTNHNPSLKSRVTISVDTSKNQFSLKLRSVTAADTAVYYCARVGPVGWGSWGNFDYWGQGTLVTVSS
VL: DIQLTQSPSFLSASVGDRVTITCWASQGISSYLAWSQQKPGKAPKLLIYAASTLQSGVPSRFSGSGSGTEFTLTISSLQPEDFATYYCQQLNSYPWTFGQGTKVEIK
notes: human IgG4 Fc (H4H)

Biological target: T1, monkey GFRα3 expressed with a C-terminal myc-myc-hexahistidine tag (monkey (Mf), UniProt O60609 32-374 (human entry), limits assumed)
T1 construct: also called MfGFRα3-mmh; MfGFRα3-mmH
T1 chain: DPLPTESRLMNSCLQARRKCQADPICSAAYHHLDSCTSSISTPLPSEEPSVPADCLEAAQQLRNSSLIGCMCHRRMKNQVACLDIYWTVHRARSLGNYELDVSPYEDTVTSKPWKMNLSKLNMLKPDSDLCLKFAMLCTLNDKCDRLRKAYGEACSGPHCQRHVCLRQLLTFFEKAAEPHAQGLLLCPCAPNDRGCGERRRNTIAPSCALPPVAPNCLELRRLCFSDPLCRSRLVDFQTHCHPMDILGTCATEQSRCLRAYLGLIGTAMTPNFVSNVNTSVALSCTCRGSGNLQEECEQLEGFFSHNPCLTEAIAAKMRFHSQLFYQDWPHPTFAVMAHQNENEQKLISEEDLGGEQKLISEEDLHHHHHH
Experiment: SPR, Ab captured, 25C
Description: Antibodies were tested for binding to human GFRα3 expressed with either a C-terminal myc-myc-hexahistidine tag (hGFRα3-mmh; SEQ ID: 370, a C-terminal hFc tag (hGFRα3-hFc; SEQ ID:371), or a C-terminal mFc tag (hGFRα3-mFc; SEQ ID:372), as well as monkey GFRα3 expressed with a C-terminal myc-myc-hexahistidine tag (MfGFRα3-mmh; SEQ ID:373). Anti-GFRα3 antibodies were captured on either a goat anti-mouse IgG polyclonal antibody (GE Healthcare, #BR-1008-38) or a mouse anti-human IgG monoclonal antibody (GE Healthcare, #BR-1008-39) surface created through direct amine coupling to a Biacore CM5 sensor chip. Kinetic experiments were carried out using HBS-EP (10 mM HEPES, 150 mM NaCl, 3 mM EDTA, 0.05% Surfactant P20, at pH 7.4) or PBS buffer containing 0.05% v/v surfactant P20 as both the running buffer and the sample buffer. Binding to human GFRα3-mmh or monkey GFRα3-mmh was evaluated by injecting several concentrations ranging from 200 to 7.4 nM (3-fold dilutions) across the captured antibody surface. Binding to human GFRα3-mFc or human GFRα3-hFc was evaluated by injecting several concentrations ranging from 100 to 3.7 nM (3-fold dilutions) across the captured antibody surface. Antibody-antigen association was monitored for up to 4 minutes, while dissociation in buffer was monitored for up to 20 minutes. Kinetic association (kₐ) and dissociation (kd) rate constants were determined by processing and fitting the data to a 1:1 binding model using Scrubber 2.0c curve fitting software. Binding dissociation equilibrium constants (KD) and dissociative half-lives (t_{1/2}) were calculated from the kinetic rate constants as: KD (M)=kd/kₐ and t_{1/2} (min)=[ln 2/(60*kd)].

First: B1
Second: B2
The Kd of the first is 9.4-fold lower: 0.627 nM for the first, 5.87 nM for the second.

Compared with B3, B4 is 3.5-fold higher in Kd: 0.649 nM for the first, 2.26 nM for the second.

Compared with B5, B6 is lower in Kd: 1.57 nM for the first, ≤ 0.0029 nM for the second.

B7 gave a Kd of 1.71 nM.

Going from B1 to B2, the koff rises from 0.000204 s⁻¹ to 0.00055 s⁻¹ (2.7-fold).

First: B3
Second: B4
The koff of the first is 4.6-fold lower: 6.78e-05 s⁻¹ for the first, 0.000315 s⁻¹ for the second.

Compared with B5, B6 is lower in koff: 0.000122 s⁻¹ for the first, ≤ 1e-06 s⁻¹ for the second.

Work on B7 yielded a koff of 0.000111 s⁻¹.

In order of rising kon:
1. B7  64700 M⁻¹ s⁻¹
2. B5  77600 M⁻¹ s⁻¹
3. B2  93700 M⁻¹ s⁻¹
4. B3  105000 M⁻¹ s⁻¹
5. B4  140000 M⁻¹ s⁻¹
6. B1  325000 M⁻¹ s⁻¹
7. B6  345000 M⁻¹ s⁻¹

In order of rising t1/2:
1. B2  0.35 h
2. B4  0.617 h
3. B1  0.95 h
4. B5  1.58 h
5. B7  1.73 h
6. B3  2.83 h
7. B6  192 h

These binders were tested against T2, human GFRα3 expressed with a C-terminal myc-myc-hexahistidine tag (human, UniProt O60609 32-374, biotinylated (sites not given) in ELISA format 2 and in the Octet cross-competition; not in SPR) (assay: Octet cross-competition; biotin-hGFRα3-mmH pre-saturated with first antibody H4H2357S).
T2 construct: also called hGFRα3-mmh; hGFRα3-mmH
Description: (§1) A cross-competition assay was conducted to assess the ability of select antibodies to compete with one another for binding to human GFRα3 using an Octet RED384 biosensor (Fortebio Inc.). The entire experiment was performed at 25° C. with the flow rate of 1000 rpm in Octet HBST buffer (0.01 M HEPES pH7.4, 0.15M NaCl, 3 mM EDTA, 0.05% v/v Surfactant P20, 0.1 mg/mL BSA). To assess whether 2 antibodies were able to compete with one another for binding to their respective epitopes on biotinylated recombinant human GFRα3 expressed with a C-terminal myc-myc-hexahistidine tag (biotin-hGFRα3-mmH; SEQ ID:370), around ˜1.2 nm of biotin-hGFRα3-mmH was first captured onto streptavidin-coated Octet sensor tips (Fortebio Inc, #18-5019) by submerging the tips for 1 minute into a 10 μg/mL solution of biotin-hGFRα3-mmH. The antigen coated sensor tips were then placed into wells containing 25 μg/mL solution of a first anti-GFRα3 monoclonal antibody for 4 minutes to saturate the biotin-hGFRα3-mmH surface. The sensor tips were then subsequently dipped into wells containing 25 μ/mL solution of a second anti-GFRα3 monoclonal antibody. The sensor tips were washed in Octet HBST buffer in between every step of the experiment. The real-time binding response was monitored during the course of the experiment and the binding response at the end of every step was recorded as shown in FIG. 9. The response of mAb-2 binding to biotin-hGFRα3-mmH pre-complexed with the first antibody was compared and competitive/non-competitive behavior of different anti-GFRα3 monoclonal antibodies was determined.

In order of rising “binding response of second antibody (nm)” value:
1. B2  -0.01 nm
2. B3  0 nm
3. B4  0.04 nm
4. B1  0.05 nm
5. B7  1.35 nm
6. B5  1.92 nm
7. B6  2 nm

These binders were tested against T2, human GFRα3 expressed with a C-terminal … (assay: Octet cross-competition; biotin-hGFRα3-mmH pre-saturated with first antibody H4H2243N2).
Description: as §1

In order of rising “binding response of second antibody (nm)” value:
1. B2  0.15 nm
2. B3  0.24 nm
3. B1  0.29 nm
4. B4  0.32 nm
5. B6  0.46 nm
6. B7  1.2 nm
7. B5  1.7 nm

These binders were tested against T2, human GFRα3 expressed with a C-terminal … (assay: Octet cross-competition; biotin-hGFRα3-mmH pre-saturated with first antibody H4H2296S).
Description: as §1

In order of rising “binding response of second antibody (nm)” value:
1. B3  0.02 nm
2. B2  0.03 nm
3. B1  0.04 nm
4. B4  0.06 nm
5. B7  1.27 nm
6. B5  1.87 nm
7. B6  2.01 nm

These binders were tested against T2, human GFRα3 expressed with a C-terminal … (assay: Octet cross-competition; biotin-hGFRα3-mmH pre-saturated with first antibody H4H2291S).
Description: as §1

In order of rising “binding response of second antibody (nm)” value:
1. B2  -0.01 nm
2. B1  0 nm
3. B3  0 nm
4. B4  0 nm
5. B7  1.44 nm
6. B5  1.94 nm
7. B6  2.03 nm
